The values below are quoted from earlier work in PMC7531836.

This series concerns the target C5 (Homo sapiens) (UniProt P01031).

In the case of eculizumab, the Kd (as a rule, the concentration at which binding is half-saturated) was 0.12 nM.
